Assay [1] concerns the target autoprocessed, secreted PCSK9-152FLAG-V5/His (human) (UniProt Q8NBP7). Kind of assay: TR-FRET on cell media, 50,000 cells per well. For orientation: In TR-FRET formats the signal depends on donor and acceptor labels being close together.
For assay [2], the target named is LDLR (UniProt P01130). Kind of assay: cell-based or functional assay.

The values below come from patent US20100113575A1.

Take Eu+3-labeled anti-FLAG M1 antibody: the window of the TR-FRET ratio against PCSK9-152FLAG-V5/His-S386A in assay [1] was 3 fold. With “purified nonprocessed D186A PCSK9 (from UniProt Q8NBP7 31-692) (enzyme)”, the activity in PCSK9-dependent LDL uptake against processed PCSK9 in assay [2] came out at 20 fold. In assay [2], “purified processed D186A PCSK9 (with retained pro domain) (from UniProt A8T644 31-152; Q8NBP7 153-692) (enzyme)” displayed an EC50, inhibition of diI-LDL uptake in HEK293 cells of 189 nM and a fold decrease in potency in the PCSK9-dependent LDL-uptake assay against WT PCSK9 of 4 fold.
